This passage reports protein stability index results from the supplement of paper PMC10567573.

The chains are these.
B1: SCNN1D (parent)
chain: FYRLYQDLETHRLPCTSRCPRPCR
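Further: lentivirally expressed fusions sorted by FACS into six bins by GFP to DsRed ratio, PSI derived from sequencing read proportions per bin multiplied by bin number.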

The variants in this series derive from B1. Nature of the series: protein stability index of a GFP-peptide fusion (GPS, HEK-293T) (PSI 1-6); higher = more stable. To be noted: c terminus: a fixed tail appended.
Consider FYRLYQDLETYRLPCTSRCPRPCR [H11Y], for which the protein stability index was found to be 1.97.
Regarding FYRLYQDLETWRLPCTSRCPRPCR [H11W], the protein stability index turned out to be 2.05.
The value for FYRLYQDLETHRLFCTSRCPRPCR [P14F] was 1.79; that for FYRLYQDLETHRLACTSRCPRPCR [P14A] was 2.01.
For FYRLYQDLETHRLGCTSRCPRPCR [P14G], the protein stability index was 2.3.
The same measure for FYRLYQDLETHRLCCTSRCPRPCR [P14C]: 1.44.
Turning to FYRLYQDLETHRLRCTSRCPRPCR [P14R], the protein stability index was found to be 2.09.
In the case of FYRLYQDLETHRLDCTSRCPRPCR [P14D], the protein stability index was found to be 2.06.
The same measure for FYRLYQDLETHRLECTSRCPRPCR [P14E]: 2.39; for FYRLYQDLETHRLNCTSRCPRPCR [P14N]: 1.96.
With FYRLYQDLETHRLWCTSRCPRPCR [P14W], the protein stability index came to 1.57.
The value for FYRLYQDLETHRLLCTSRCPRPCR [P14L] was 3.27; that for FYRLYQDLETHRLQCTSRCPRPCR [P14Q] was 1.94.
With FYRLYQDLETHRLVCTSRCPRPCR [P14V], the protein stability index turned out to be 1.47.
The same measure for FYRLYQDLETHRLSCTSRCPRPCR [P14S]: 2.44.
With FYRLYQDLETHRLKCTSRCPRPCR [P14K], the protein stability index is 1.89.
The same measure for FYRLYQDLETHRLICTSRCPRPCR [P14I]: 1.53; for FYRLYQDLETHRLTCTSRCPRPCR [P14T]: 1.76; for FYRLYQDLETHRLYCTSRCPRPCR [P14Y]: 1.45.
FYRLYQDLETHRLMCTSRCPRPCR [P14M]: the protein stability index is 1.6.
The value for FYRLYQDLETHRLHCTSRCPRPCR [P14H] was 1.97.
The value for FYRLYQDLETHRTPCTSRCPRPCR [L13T] was 2.97.
Consider FYRLYQDLETHREPCTSRCPRPCR [L13E], for which the protein stability index was 3.25.
As for FYRLYQDLETHRMPCTSRCPRPCR [L13M], the protein stability index was 2.24.
The same measure for FYRLYQDLETHRGPCTSRCPRPCR [L13G]: 2.66; for FYRLYQDLETHRSPCTSRCPRPCR [L13S]: 2.67.
With FYRLYQDLETHRNPCTSRCPRPCR [L13N], the protein stability index turned out to be 2.23.
Consider FYRLYQDLETHRHPCTSRCPRPCR [L13H], for which the protein stability index was determined as 2.38.
As for FYRLYQDLETHRWPCTSRCPRPCR [L13W], the protein stability index was determined as 2.21.
The value for FYRLYQDLETHRIPCTSRCPRPCR [L13I] was 2.38; that for FYRLYQDLETHRFPCTSRCPRPCR [L13F] was 2.33.
Turning to FYRLYQDLETHRKPCTSRCPRPCR [L13K], the protein stability index was determined as 2.63.
With FYRLYQDLETHRRPCTSRCPRPCR [L13R], the protein stability index was determined as 3.39.
FYRLYQDLETHRCPCTSRCPRPCR [L13C]: the protein stability index worked out at 1.85.
The value for FYRLYQDLETHRDPCTSRCPRPCR [L13D] was 2.19.
As for FYRLYQDLETHRAPCTSRCPRPCR [L13A], the protein stability index is 2.42.
FYRLYQDLETHRQPCTSRCPRPCR [L13Q]: the protein stability index was determined as 2.03.
On to FYRLYQDLETHRYPCTSRCPRPCR [L13Y], for which the protein stability index worked out at 1.72.
The value for FYRLYQDLETHRLPYTSRCPRPCR [C15Y] was 1.8; that for FYRLYQDLETHRLPQTSRCPRPCR [C15Q] was 1.76.
Consider FYRLYQDLETHRLPDTSRCPRPCR [C15D], for which the protein stability index was found to be 2.24.
On to FYRLYQDLETHRLPATSRCPRPCR [C15A], for which the protein stability index was 2.07.
The value for FYRLYQDLETHRLPSTSRCPRPCR [C15S] was 2.64; that for FYRLYQDLETHRLPGTSRCPRPCR [C15G] was 2.47.
As for FYRLYQDLETHRLPFTSRCPRPCR [C15F], the protein stability index was found to be 2.71.
The value for FYRLYQDLETHRLPMTSRCPRPCR [C15M] was 1.73.
The same measure for FYRLYQDLETHRLPRTSRCPRPCR [C15R]: 2.3; for FYRLYQDLETHRLPITSRCPRPCR [C15I]: 2.48; for FYRLYQDLETHRLPTTSRCPRPCR [C15T]: 2.
The value for FYRLYQDLETHRLPHTSRCPRPCR [C15H] was 2.28; that for FYRLYQDLETHRLPPTSRCPRPCR [C15P] was 1.85; that for FYRLYQDLETHRLPWTSRCPRPCR [C15W] was 1.75.
FYRLYQDLETHRLPCTFRCPRPCR [S17F]: the protein stability index stood at 1.75.
As to FYRLYQDLETHRLPCTERCPRPCR [S17E], the protein stability index is 2.43.
The value for FYRLYQDLETHRLPCTCRCPRPCR [S17C] was 1.65; that for FYRLYQDLETHRLPCTARCPRPCR [S17A] was 2.46; that for FYRLYQDLETHRLPCWSRCPRPCR [T16W] was 1.51.
Take FYRLYQDLETHRLPCRSRCPRPCR [T16R]: the protein stability index is 1.46.
Consider FYRLYQDLETHRLPCFSRCPRPCR [T16F], for which the protein stability index was 1.58.
Turning to FYRLYQDLETHRLPCHSRCPRPCR [T16H], the protein stability index was found to be 1.49.
As to FYRLYQDLETHRLPCASRCPRPCR [T16A], the protein stability index came out at 1.98.
The value for FYRLYQDLETHRLPCMSRCPRPCR [T16M] was 2.1.
The same measure for FYRLYQDLETHRLPCKSRCPRPCR [T16K]: 1.9.
In the case of FYRLYQDLETHRLPCISRCPRPCR [T16I], the protein stability index came to 1.62.
On to FYRLYQDLETHRLPCNSRCPRPCR [T16N], for which the protein stability index came out at 2.21.
The value for FYRLYQDLETHRLPCGSRCPRPCR [T16G] was 1.93; that for FYRLYQDLETHRLPCDSRCPRPCR [T16D] was 2.79.
Turning to FYRLYQDLETHRLPCESRCPRPCR [T16E], the protein stability index was 2.5.
The value for FYRLYQDLETHRLPCLSRCPRPCR [T16L] was 1.82.
Regarding FYRLYQDLETHRLPCCSRCPRPCR [T16C], the protein stability index was 1.66.
Take FYRLYQDLETHRLPCSSRCPRPCR [T16S]: the protein stability index amounted to 1.82.
The same measure for FYRLYQDLETHRLPCYSRCPRPCR [T16Y]: 1.6.
The same measure for FYRLYQDLETHRLPCQSRCPRPCR [T16Q]: 1.98; for FYRLYQDLETHRLPCPSRCPRPCR [T16P]: 1.11.
As for FYRLYQDLETHRLPCVSRCPRPCR [T16V], the protein stability index is 1.94.
Regarding FYRLYQDLETHNLPCTSRCPRPCR [R12N], the protein stability index came to 2.22.
The same measure for FYRLYQDLETHCLPCTSRCPRPCR [R12C]: 2.3; for FYRLYQDLETHALPCTSRCPRPCR [R12A]: 3.03; for FYRLYQDLETHLLPCTSRCPRPCR [R12L]: 2.05.
The value for FYRLYQDLETHFLPCTSRCPRPCR [R12F] was 2.41; that for FYRLYQDLETHTLPCTSRCPRPCR [R12T] was 2.1; that for FYRLYQDLETHMLPCTSRCPRPCR [R12M] was 2.33.
The value for FYRLYQDLETHSLPCTSRCPRPCR [R12S] was 3.51; that for FYRLYQDLETHVLPCTSRCPRPCR [R12V] was 1.93.
As to FYRLYQDLETHWLPCTSRCPRPCR [R12W], the protein stability index was found to be 2.
The value for FYRLYQDLETHKLPCTSRCPRPCR [R12K] was 2.37; that for FYRLYQDLETHELPCTSRCPRPCR [R12E] was 2.5.
The same measure for FYRLYQDLETHQLPCTSRCPRPCR [R12Q]: 2.47; for FYRLYQDLETHGLPCTSRCPRPCR [R12G]: 2.47; for FYRLYQDLETHPLPCTSRCPRPCR [R12P]: 2.64.
In the case of FYRLYQDLETHHLPCTSRCPRPCR [R12H], the protein stability index was 3.03.
The value for FYRLYQDLETHYLPCTSRCPRPCR [R12Y] was 1.78; that for FYRLYQDLETHDLPCTSRCPRPCR [R12D] was 2.4; that for FYRLYQDLETHILPCTSRCPRPCR [R12I] was 1.42.
